Numbering of substitutions follows the chain as printed. Names may count otherwise.
Tests used:
Test in all cases: purified protein
Assay type in all cases: biochemical, Falsihalocynthiibacter arcticus
Settings in all cases: free enzyme, 20 mM Tris-HCl pH 8.0, 25 °C (standard assay)
purified protein [1] = substrate: CC(=O)Oc1ccc([N+](=O)[O-])cc1
purified protein [2] = substrate: CCCC(=O)Oc1ccc([N+](=O)[O-])cc1
purified protein [3] = substrate: CCCCCC(=O)Oc1ccc([N+](=O)[O-])cc1

B1: HaSGNH1 (Falsihalocynthiibacter arcticus) (protein)
chain: MSARVQAETVVIAALGDSLTQGYGLPQEDGLVAQLQGWLDENNHDIRLINAGVSGDTTAGGRSRIEWTLTPDVDAVIVELGGNDMMRGIAPSDSRKNLTEILEILQSRDLPVLLVGLPSANNFGPEFKAEFDDMFPALSTDFETLLYPDFFTSFRTKLNDTSALTTYMQDDAIHPNAKGVAAIVEDFGPLVVELAQQTQE
notes: ORF cloned from genomic DNA (primer starts ATG AGT GCT CGC GTT: MSARV), pET-21a, N-terminal His6 tag, E. coli BL21(DE3)
Purified protein [1]
  Km: 0.93 (± 0.15) mM
  Vmax: 29.4 µM/min
  kcat: 8.38 ± 0.53 s⁻¹
  kcat/Km: 8900 M⁻¹ s⁻¹
Purified protein [2]
  Km: 0.80 (± 0.23) mM
  Vmax: 60 µM/min
  kcat: 17.1 ± 1.83 s⁻¹
  kcat/Km: 21300 M⁻¹ s⁻¹
Purified protein [3]
  Km: 0.99 (± 0.20) mM
  Vmax: 57.6 µM/min
  kcat: 16.5 ± 1.45 s⁻¹
  kcat/Km: 16700 M⁻¹ s⁻¹

B2: HaSGNH1 (Falsihalocynthiibacter arcticus; R87L) (protein)
chain: B1 chain with R87L
notes: as for B1
Purified protein [2]
  Km: 0.68 (± 0.10) mM
  Vmax: 69 µM/min
  kcat: 15 ± 0.84 s⁻¹
  kcat/Km: 22200 M⁻¹ s⁻¹

B3: HaSGNH1 (Falsihalocynthiibacter arcticus; M86R) (protein)
chain: B1 chain with M86R
notes: as for B1
Purified protein [2]
  Km: 1.26 (± 0.17) mM
  Vmax: 46.8 µM/min
  kcat: 5.1 ± 0.35 s⁻¹
  kcat/Km: 4200 M⁻¹ s⁻¹

B4: HaSGNH1 (Falsihalocynthiibacter arcticus; M86E) (protein)
chain: B1 chain with M86E
notes: as for B1
Purified protein [2]
  Km: 1.06 (± 0.23) mM
  Vmax: 36.6 µM/min
  kcat: 4 ± 0.39 s⁻¹
  kcat/Km: 3800 M⁻¹ s⁻¹
